{
  "source": "patent US20050058639A1",
  "about": "(AstraZeneca / MedImmune, published 2005)",
  "key": {"human MIP-1-alpha": {"biological_target": "T1, human MIP-1-alpha (human, UniProt P10147 24-92, limits assumed)", "T1 construct": "also called hMIP-1-alpha", "T1 sequence (looked up)": "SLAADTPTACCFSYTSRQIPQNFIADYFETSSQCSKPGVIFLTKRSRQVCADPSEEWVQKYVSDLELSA", "test": "ELISA, coated antigen", "in_short": "(§1)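 Plates coated overnight at 4° C with MCP-1, MCP-2, MCP-3, MCP-4, RANTES, GRO-alpha, MIP-1 alpha, eotaxin, rat MCP-1 or mouse JE (2 μg/ml, carbonate buffer pH 9.6), blocked with BSA. Hybridoma supernatants bound 2 hours at room temperature; TMB colour developed about 10 minutes.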"}, "rat MCP-1": {"biological_target": "rat MCP-1 (rat, UniProt P14844 24-148)", "sequence (P14844 24-148 limits assumed)": "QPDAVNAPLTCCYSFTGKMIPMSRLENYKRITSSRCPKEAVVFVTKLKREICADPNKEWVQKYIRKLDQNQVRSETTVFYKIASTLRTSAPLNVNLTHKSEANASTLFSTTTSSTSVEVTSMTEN", "test": "ELISA, coated antigen", "in_short": "as §1"}, "recombinant human MCP-4 [1]": {"biological_target": "T2, recombinant human MCP-4 (human, UniProt Q99616 24-98, limits assumed)", "T2 construct": "also called rhMCP-4", "T2 sequence (Q99616 24-98 limits assumed)": "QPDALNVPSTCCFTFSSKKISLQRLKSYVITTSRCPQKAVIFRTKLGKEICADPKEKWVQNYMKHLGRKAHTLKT", "test": "ELISA, coated antigen", "in_short": "as §1"}, "[2]": {"biological_target": "T3, recombinant mouse JE/MCP-1 (mouse, UniProt P10148 24-148)", "T3 construct": "also called rmJE/MCP-1", "T3 sequence (P10148 24-148 limits assumed)": "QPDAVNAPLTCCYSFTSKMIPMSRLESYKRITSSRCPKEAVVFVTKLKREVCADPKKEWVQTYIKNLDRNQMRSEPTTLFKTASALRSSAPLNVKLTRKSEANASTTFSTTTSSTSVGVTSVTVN", "test": "ELISA, coated antigen", "in_short": "as §1"}, "recombinant human MCP-2 [3]": {"biological_target": "T4, recombinant human MCP-2 (human, UniProt P80075 24-99)", "T4 construct": "also called rhMCP-2", "T4 sequence (looked up)": "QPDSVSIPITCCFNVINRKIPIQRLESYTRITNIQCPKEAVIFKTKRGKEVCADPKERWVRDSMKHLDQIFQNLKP", "test": "ELISA, coated antigen", "in_short": "as §1"}, "human GRO/MGSA": {"biological_target": "T5, human GRO/MGSA (human, UniProt P09341 35-107)", "T5 construct": "also called hGRO/MGSA; GRO-alpha", "T5 sequence (looked up)": "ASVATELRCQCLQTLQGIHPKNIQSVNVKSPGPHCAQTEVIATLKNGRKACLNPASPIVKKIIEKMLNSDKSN", "test": "ELISA, coated antigen", "in_short": "as §1"}, "recombinant human MCP-3 [4]": {"biological_target": "T6, recombinant human MCP-3 (human, UniProt P80098 24-99)", "T6 construct": "also called rhMCP-3", "T6 sequence (P80098 24-99 limits assumed)": "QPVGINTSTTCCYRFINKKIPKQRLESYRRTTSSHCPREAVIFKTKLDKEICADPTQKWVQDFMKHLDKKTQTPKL", "test": "ELISA, coated antigen", "in_short": "as §1"}, "human eotaxin": {"biological_target": "T7, human eotaxin (human, UniProt P51671 24-97)", "T7 construct": "also called hEotaxin", "T7 sequence (P51671 24-97 limits assumed)": "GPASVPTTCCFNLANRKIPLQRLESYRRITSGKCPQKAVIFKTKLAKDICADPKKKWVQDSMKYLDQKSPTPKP", "test": "ELISA, coated antigen", "in_short": "as §1"}, "human RANTES": {"biological_target": "T8, human RANTES (human, UniProt P13501 24-91)", "T8 construct": "also called hRANTES", "T8 sequence (looked up)": "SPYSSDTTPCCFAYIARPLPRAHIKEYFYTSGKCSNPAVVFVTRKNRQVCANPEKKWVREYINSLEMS", "test": "ELISA, coated antigen", "in_short": "as §1"}, "recombinant human MCP-4 [5]": {"biological_target": "T2, recombinant human MCP-4", "test": "Biacore 2000, mAb immobilized, antigen injected", "description": "(§2) The interaction analysis was performed at 25° C. using two CM5 chips docked in Biacore 2000 optical biosensors. Individual flow cells on each chip were activated with a 7-minute injection of NHS/EDC, carbohydrazide was coupled through the NHS ester using a 7-minute injection, and the residual activated groups were blocked with a 7-minute injection of ethanolamine. […] The oxidized antibody was desalted into 10 mM sodium acetate, pH 5.0, to couple the antibody to the carbohydrazide-modified surface. […] The mAb surfaces were stabilized by reducing the hydrazone bond with 0.1 M sodium cyanoborohydride. The antigen/antibody interaction was tested by injecting duplicate antigen samples diluted in running buffer (10 mM HEPES, 150 mM NaCl, 0.005% surfactant, 200 μg/mL BSA, pH 7.4), in a 300-fold concentration range. The surfaces were regenerated with a 12-second pulse of 15 mM H₃PO₄."}, "recombinant human MCP-2 [6]": {"biological_target": "T4, recombinant human MCP-2", "test": "Biacore 2000, mAb immobilized, antigen injected", "description": "as §2"}, "recombinant human MCP-3 [7]": {"biological_target": "T6, recombinant human MCP-3", "test": "Biacore 2000, mAb immobilized, antigen injected", "description": "as §2"}, "[8]": {"biological_target": "T9, human monocyte chemo-attractant protein-1 (MCP-1) (human, UniProt P13500 24-99)", "T9 construct": "76-residue recombinant protein from E. coli, bought (PeproTech); also called hMCP-1(MCAF); human MCP-1", "T9 sequence (P13500 24-99)": "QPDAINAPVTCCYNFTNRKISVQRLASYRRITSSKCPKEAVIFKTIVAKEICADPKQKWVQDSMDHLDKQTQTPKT", "test": "ELISA, coated antigen; ELISA, purified clone 1:50 on coated hMCP-1 (2 ug/mL), cross-reactivity panel", "description": "Determining cross-reactivity of anti-MCP-1 antibodies with other chemokines. ELISA plates (Fisher Cat. No. 12-565-136) were coated with 50 μl/well of MCP-1, MCP-2, MCP-3, MCP-4, RANTES, GRO-alpha, MIP-1 alpha, eotaxin, rat MCP-1 and mouse JE (2 μg/ml) in coating buffer (0.1 M carbonate buffer, pH 9.6, NaHCO₃ 8.4 g/L, then incubated at 4° C. overnight. After incubation, the plates were washed with washing buffer (0.05% Tween 20 in PBS) three times. 200 μL/well blocking buffer (0.5% BSA, 0.1% Tween 20, 0.01% Thimerosal in 1×PBS) were added and the plates incubated at room temperature for 1 hour. After incubation, the plates were washed with washing buffer three times. 50 μL/well of hybridoma supernatants, and positive and negative controls (positive control was anti-MCP-1 antibody purchased from R&D Sciences, and negative control was an antibody to Keyhole Limpet Hemocyanin produced at Abgenix) were added and the plates incubated at room temperature for 2 hours. After incubation, the plates were washed three times with washing buffer. […] After incubation, the plates were washed three times with washing buffer and 100 μL/well of TMB (BioFX Lab. Cat. #TMSK-0 100-01) was added and the plates allowed to develop for about 10 minutes."}, "[9]": {"biological_target": "T9, human monocyte chemo-attractant …", "test": "Biacore 2000, mAb immobilized, antigen injected; Biacore, 25 C, native MCP-1 injected over immobilized mAb 3.11.2 (250 RU)", "description": "as §2"}, "[10]": {"biological_target": "T9, human monocyte chemo-attractant …", "test": "cell-based or functional assay"}, "[11]": {"biological_target": "T9, human monocyte chemo-attractant …", "test": "ELISA, hybridoma supernatant on coated MCP-1; ELISA, hybridoma supernatant on plate-coated non-reduced MCP-1 (2 ug/mL)", "description": "Selection of candidate antibodies for ELISA. After 14 days of culture, hybridoma supernatants were screened for MCP-1-specific monoclonal antibodies. The ELISA plates (Fisher, Cat. No. 12-565-136) were coated with 50 μl/well of MCP-1 (2 μg/mL) in Coating Buffer (0.1 M Carbonate Buffer, pH 9.6, NaHCO₃8.4 g/L), then incubated at 4° C. overnight. After incubation, the plates were washed with Washing Buffer (0.05% Tween 20 in PBS) three times. 200 μl/well Blocking Buffer (0.5% BSA, 0.1% Tween 20, 0.01% Thimerosal in 1× PBS) were added and the plates incubated at room temperature for 1 hour. After incubation, the plates were washed with Washing Buffer three times. 50 μL/well of hybridoma supernatants, and positive and negative controls were added and the plates incubated at room temperature for 2 hours.\nThe positive control used throughout was XMG2 MCP-1 Group 1, footpad N160-7 and the negative control was XMG2 KLH Group 1, footpad L627-6. After incubation, the plates were washed three times with Washing Buffer. […] In the secondary screen, three sets of samples (positives in first screening) were screened, one set for hIgG detection, one set for hKappa detection, and one set for hlambda detection. After incubation, the plates were washed three times with Washing Buffer. 100 μL/well of TMB (BioFX Lab. Cat. #TMSK-0100-01) were added and the plates allowed to develop for about 10 minutes (until negative control wells barely started to show color), then 50 μL/well stop solution (TMB Stop Solution (BioFX Lab. Cat. #STPR-0100-01) were added and the plates read on an ELISA plate reader at wavelength 450 nm. The OD readings from the positive wells are presented in Table 9."}, "recombinant human MCP-3 [12]": {"biological_target": "T6, recombinant human MCP-3", "test": "cell-based or functional assay"}},
  "data": [
    {"binder": "anti-MCP-1 mAb 3.11.1 (antibody, human IgG4, kappa, V domains shown) VH: QVQLQESGPGLVKPSQTLSLTCTVSGGSISSGGNYWNWIRQHPGKGLEWIGYIYYSGNTYYNPSLKSRITISIDTSKNQFSLTLSSVTAADTAVYYCARDGGDDAFDIWGQGTMVTVSS VL: DIQMTQSPSSLSASVGDRVTITCQASQDISNYLNWYQQKPGKAPKLLIYDASNLETGVPSRFSGSGSGTDFTFTINSLQPEDIATYYCQEYNNLPYSFGQGTKLEIKR", "values": [
      {"measurement": "ELISA OD", "setting": "human MIP-1-alpha", "value": 0.053, "unit": "OD450"},
      {"measurement": "ELISA OD", "setting": "rat MCP-1", "value": 0.057, "unit": "OD450"},
      {"measurement": "ELISA OD", "setting": "recombinant human MCP-4 [1]", "value": 0.981, "unit": "OD450"},
      {"measurement": "ELISA OD", "setting": "[2]", "value": 0.063, "unit": "OD450"},
      {"measurement": "ELISA OD", "setting": "recombinant human MCP-2 [3]", "value": 0.336, "unit": "OD450"},
      {"measurement": "ELISA OD", "setting": "human GRO/MGSA", "value": 0.054, "unit": "OD450"},
      {"measurement": "ELISA OD", "setting": "recombinant human MCP-3 [4]", "value": 1.32, "unit": "OD450"},
      {"measurement": "ELISA OD", "setting": "human eotaxin", "value": 0.339, "unit": "OD450"},
      {"measurement": "ELISA OD", "setting": "human RANTES", "value": 0.064, "unit": "OD450"},
      {"measurement": "Kd", "setting": "recombinant human MCP-4 [5]", "value": 3.7, "unit": "pM"},
      {"measurement": "koff", "setting": "recombinant human MCP-4 [5]", "value": 0.00055, "unit": "s⁻¹"},
      {"measurement": "kon", "setting": "recombinant human MCP-4 [5]", "value": "1.5e+08", "unit": "M⁻¹ s⁻¹"},
      {"measurement": "Kd", "setting": "recombinant human MCP-2 [6]", "value": 0.046, "unit": "nM"},
      {"measurement": "koff", "setting": "recombinant human MCP-2 [6]", "value": 0.012, "unit": "s⁻¹"},
      {"measurement": "kon", "setting": "recombinant human MCP-2 [6]", "value": "2.6e+08", "unit": "M⁻¹ s⁻¹"},
      {"measurement": "Kd", "setting": "recombinant human MCP-3 [7]", "value": 0.049, "unit": "nM"},
      {"measurement": "koff", "setting": "recombinant human MCP-3 [7]", "value": 0.0074, "unit": "s⁻¹"},
      {"measurement": "kon", "setting": "recombinant human MCP-3 [7]", "value": "1.5e+08", "unit": "M⁻¹ s⁻¹"},
      {"measurement": "ELISA OD", "setting": "[8]", "value": 0.803, "unit": "OD450"},
      {"measurement": "Kd", "setting": "[9]", "value": 3.3, "unit": "pM"},
      {"measurement": "koff", "setting": "[9]", "value": 0.001, "unit": "s⁻¹"},
      {"measurement": "kon", "setting": "[9]", "value": "3e+08", "unit": "M⁻¹ s⁻¹"},
      {"measurement": "IC50 Ca++ Flux", "setting": "[10]", "value": 0.092, "unit": "µg/mL"},
      {"measurement": "IC50 Chemotaxis", "setting": "[10]", "value": 0.33, "unit": "µg/mL"},
      {"measurement": "ELISA OD-MCP-1", "setting": "[11]", "value": 4, "unit": "OD450"},
      {"measurement": "IC50, inhibition of MCP-3-induced migration of THP-1 cells (chemotaxis assay, MCP3 at 0.166 nM)", "setting": "recombinant human MCP-3 [12]", "value": 139, "unit": "pM"}
    ]}
  ]
}
